The text below walks through data of patent US20090297524A1 (DOMANTIS, published 2009).

T1: Recombinant human CD40L (human, UniProt P29965 108-261, limits assumed)
T1 construct: also called CD40 ligand
T1 sequence (looked up): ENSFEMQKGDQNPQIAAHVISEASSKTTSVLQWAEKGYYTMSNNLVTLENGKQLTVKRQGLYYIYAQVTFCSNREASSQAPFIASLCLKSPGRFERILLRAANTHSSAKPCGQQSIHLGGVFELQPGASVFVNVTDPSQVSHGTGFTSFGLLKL

B1: DOM8-24cys (other)
VH: ASTEVQLLESGGGLVQPGGSLRLSCAASGFTFSNYQMAWVRQAPGKGLEWVSSITSEGGSTYYADSVKGRFTISRDNSKNTLYLQMNSLRAEDTAVYYCAKPGKNFDYWGQGTLVTVSC
notes: VH dAb DOM8-24 with an engineered C-terminal cysteine (last Ser replaced by Cys); also called unmodified protein
B2: 30K PEG-MAL PEGylated DOM8-24cys (other)
VH: ASTEVQLLESGGGLVQPGGSLRLSCAASGFTFSNYQMAWVRQAPGKGLEWVSSITSEGGSTYYADSVKGRFTISRDNSKNTLYLQMNSLRAEDTAVYYCAKPGKNFDYWGQGTLVTVSC
modifications: 30K PEG-MAL on the engineered C-terminal cysteine
notes: PEGylated monomer; also called 30K PEG DOM8-24cys
B3: 40K PEG2-MAL PEGylated DOM8-24cys (other)
VH: ASTEVQLLESGGGLVQPGGSLRLSCAASGFTFSNYQMAWVRQAPGKGLEWVSSITSEGGSTYYADSVKGRFTISRDNSKNTLYLQMNSLRAEDTAVYYCAKPGKNFDYWGQGTLVTVSC
modifications: 40K PEG2-MAL on the engineered C-terminal cysteine
notes: PEGylated monomer; also called 40K PEG DOM8-24cys
B4: DOM-81 (other)
VH: EVQLLESGGGLVQPGGFLRLSCAASGFTFELYPMAWVRQAPGKGLEWVSSISPVGFLTYYADSVKGRFTISRDNSKNTLYLQMNSLRAEDTAVYYCAKGHEGSYTPRSAFDYWGQGTLVTVSS
notes: VH dAb
B5: DOM-75 (other)
VH: EVQLLESGGGLVQPGGSLRLSCAASGFTFLQYPMGWVRQAPGKGLEWVSTISPVGLTTYYADSVKGRFTISRDNSKNTLYLQMNSLRAEDTAVYYCAKLFEGSRIQRDVGFDYWGQGTLVTVSS
notes: VH dAb
B6: DOM-85 (other)
VH: EVQLLESGGGLVQPGGSLRLSCAASGFTFEQYDMRWVRQAPGKGLEWVSWIDEAGHETYYADSVKGRFTISRDNSRNTLYLQMNSLRAEDTAVYYCAKGMDGFDYWGQGTLVTVSS
notes: VH dAb
B7: DOM-82 (other)
VH: EVQLLESGGGLVQPGGSLRLSCAASGFTFVAYPMAWVRQAPGKGLEWVSTIAPLGGNTYYADSVKGRFTISRDNSKNTLYLQMNSLRAEDTAVYYCAKRPEGLQIDSQNFDYWGQGTLVTVSS
notes: VH dAb
B8: DOM-87 (other)
VL: DIQMTQSPSSLSASVGDRVTITCRASQDIDESLMWYQQKPGKAPRLLIYGVSYLQSGVPSRFSGSGSGTDFTLTISSLQPEDFATYYCQQRWKAPFTFGQGTKVEIKR
notes: Vk dAb
B9: DOM.88 (other)
VL: DIQMTQSPSSLSASVGDRVTITCRASQEIVEDLYWYQQKPGKAAKLLIYGASWLQSGVPSRFSGSGSGTDFTLTISSLQPEDFATYYCQQTRRRPYTFGQGTKVEIKR
notes: Vk dAb
B10: DOM-8 (other)
VL: DIQMTQSPSSLSASVGDRVTITCRASQFIDTSLEWYQQKPGKAPKLLIYDGSHLQSGVPSRFSGSGSGTDFTLTISSLQPEDLATYYCQQYWVLPLTFGQGTKVEIKR
notes: Vk dAb
B11: DOM-77 (other)
VH: EVQLLESGGGLVQPGGSLRLSCAASGFTFEEYGMAWVRQAPGKGLEWVSTISPLGISTYYADSVKGRFTISRDNSKNTLYLQMNSLRAEDTAVYYCAKHATSQESLRSFDYWGQGTLVTVSS
notes: VH dAb
B12: DOM-10 (other)
VH: EVQLLESGGGLVQPGGSLRLSCAASGFTFIAYDMSWVRQAPGKGLEWVSWIDEWGLQTYYADSVKGRFTISRDNSKNTLYLQMNSLRAEDTAVYYCAKKTPEEFDYWGQGTLVTVSS
notes: VH dAb
B13: DOM-2 (other)
VH: EVQLLESGGGLVQPGGSLRLSCAASGFTFSDYEMMWVRQAPGKGLEWVSTITSDGISTYYADSVKGRFTIFRDNSKNTLYLQMNSLRAEDTAVYYCAKSGRFFDYWGQGTLVTVSS
notes: VH dAb
B14: DOM-4 (other)
VH: EVQLLESGGGLVQPGGSLRLSCAASGFTFDNYEMTWVRQAPGKGLEWVSSITSDGTSTYYADSVKGRFTISRDNSKNTLYLQMNSLRAEDTAVYYCAKPNPPFDYWGQGTLVTVSS
notes: VH dAb
B15: DOM-27 (other)
VH: EVQLLESGGGLVQPGGSLRLSCAASGFTFNLYEMTWVRQAPGKGLEWVSSITSDGVSTYYADSVKGRFTISRDNSKNTLYLQMNSLRAEDTAVYYCAKPDSPFDYWGQGTLVTVSS
notes: VH dAb
B16: DOM-7 (other)
VH: EVQLLESGGGLVQPGGSLRLSCAASGFTFNLYEMTWVRQAPGKGLEWVSSITSDGVSTYYADSVKGRFTISRDNSKNTLYLQMNSLRAEDTAVYYCAKAGVIFDYWGQGTLVTVSS
notes: VH dAb
B17: DOM-31 (other)
VH: EVQLLESGGGLVQPGGSLRLSCAASGFTFEEYQMAWVRQAPGKGLEWVSTISDDGSSTYYADSVKGRFTISRDNSKNTLYLQMNSLRAEDTAVYYCAKPDLYFDYWGQGTLVTVSS
notes: VH dAb
B18: DOM-30 (other)
VH: EVQLLESGGGLVQPGGSLRLSCAASGFTFARYQMAWVRQAPGKGLEWVSTISDDGDSTYYADSVKGRFTISRDNSKNTLYLQMNSLRAEDTAVYYCAKLDKLFDYWGQGTLVTVSS
notes: VH dAb
B19: DOM-20 (other)
VH: EVQLLESGGGLVQPGGSLRLSCAASGFTFSGYQMAWVRQAPGKGLEWVSGISSEGLTTYYADSVKGRFTISRDNSKNTLYLQMNSLRAEDTAVYYCAKLGRRFDYWGQGTLVTVSS
notes: VH dAb
B20: DOM-5 (other)
VH: EVQLLESGGGLVQPGGSLRLSCAASGFTFDGYEMAWVRQAPGKGLEWVSSITSDGTSTYYADSVKGRFTISRDNSKNTLYLQMNSLRAEDTAVYYCAKPGLRFDYWGQGTLVTVSS
notes: VH dAb
B21: DOM-24 (other)
VH: EVQLLESGGGLVQPGGSLRLSCAASGFTFSNYQMAWVRQAPGKGLEWVSSITSEGGSTYYADSVKGRFTISRDNSKNTLYLQMNSLRAEDTAVYYCAKPGKNFDYWGQGTLVTVSS
notes: VH dAb; also called DOM8-24; monomeric DOM-24

For the first test, the target named is T1, Recombinant human CD40L. The experiment in a line: CD40L receptor binding assay (RBA, ELISA): dAb titrated against 3 ng/ml CD40L binding to plate-coated CD40/Fc.
Description: (§1) A 96 well Nunc Maxisorp assay plate was coated overnight at 4° C. with 100 μl per well of recombinant human CD40/Fc (R&D Systems) at 0.5 μg/ml in carbonate buffer. The plate was washed 3 times with 300 μl of 0.05% Tween/PBS and 3 times with 300 μl of PBS using a Tecan plate washer. The wells were blocked using 200 μl of PBS containing 2% (w/v) BSA and incubated for a minimum of 1 h at room temperature. The wells were washed as above, then 50 μl of purified dAb protein was added to each well. […] The plate was washed as described above, then 100 μl HRP conjugated anti-biotin antibody (1:5000 dilution in diluent) added to each well and the plate incubated for 1 hr at room temperature. The plate was washed again as described above using a Tecan plate washer and the assay developed using 100 μl of SureBlue 1-Component TMB MicroWell Peroxidase solution (the plate was left at room temperature for up to 20 min). The reaction was stopped by the addition of 100 μl M hydrochloric acid. The OD₄₅₀ₙₘ of the plate was assayed within 30 minutes of acid addition. The OD₄₅₀ₙₘ is proportional to the amount of bound streptavidin-HRP conjugate, therefore the greater the degree of dAb inhibition the lower the OD₄₅₀ₙₘ of the resulting signal.
Turning to B1, the “IC50 (read off the curve)” value is ~0.6 nM. Same read-out and setting: in the case of B2 it was ~0.5 nM. As for B3, the “IC50 (read off the curve)” value is ~1 nM.

The target of a further test is T1, Recombinant human CD40L. Description: CD40L receptor binding assay: inhibition of CD40L (3 ng/ml) binding to coated CD40/Fc; 40K PEG.
Description: as §1
For the molecule B3, the concentration for half-maximal inhibition (IC50) (usually the concentration at which inhibition is half-maximal) is ~1 nM.

The target of another test is T1, Recombinant human CD40L. Description: CD40L receptor binding assay: inhibition of CD40L (3 ng/ml) binding to coated CD40/Fc; 30K PEG.
Description: as §1
For the molecule B2, the IC50 was ~1 nM.

In the next test the target is T1, Recombinant human CD40L. The experiment in a line: CD40L/CD40-Fc receptor binding assay.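 Note: plate assay with coated human CD40-Fc, bound ligand detected via HRP anti-biotin antibody and TMB, OD at 450 nm, lower signal indicates stronger inhibition by dAb.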
Description: (§2) A 96 well Nunc Maxisorp assay plate was coated overnight at 4° C. with 100 μl per well of recombinant human CD40/Fc (R&D Systems) at 0.5 μg/ml in carbonate buffer. The plate was washed 3 times with 300 μl of 0.05% Tween/PBS and 3 times with 300 μl of PBS using a Tecan plate washer. The wells were blocked using 200 μl of PBS containing 2% (w/v) BSA and incubated for a minimum of 1 h at room temperature. The wells were washed as above, then 50 μl of purified dAb protein (or unpurified supernatant containing dAb from a micro-culture expression) was added to each well.
(§3) The plate was washed as described above, then 100 μl HRP conjugated anti-biotin antibody (1:5000 dilution in diluent) added to each well and the plate incubated for 1 hr at room temperature. The plate was washed again as described above using a Tecan plate washer and the assay developed using 100 μl of SureBlue 1-Component TMB MicroWell Peroxidase solution (the plate was left at room temperature for up to 20 min). The reaction was stopped by the addition of 100 μl M hydrochloric acid. The OD₄₅₀ₙₘ of the plate was assayed within 30 minutes of acid addition. The OD₄₅₀ₙₘ is proportional to the amount of bound streptavidin-HRP conjugate, therefore the greater the degree of dAb inhibition the lower the OD₄₅₀ₙₘ of the resulting signal.
As for B4, the binding result is on record as “binds”. Consider B5, for which the binding result was “binds”. Regarding B6, the binding result is reported as “binds”. Consider B7, for which the binding result was “binds”.

On to B8, for which the binding result is on record as “binds”.

With B9, the binding result was “binds”.

A further test deals with T1, Recombinant human CD40L. Description: CD40L receptor binding assay: dAb inhibits CD40L (3 ng/ml) binding to coated CD40/Fc.
Description: as §2, §3
For the molecule B10, the IC50 was 900 nM. As to B11, the concentration for half-maximal inhibition (IC50) was 40 nM.

Regarding B12, the IC50 stood at 50 nM.

B13: the IC50 was found to be 800 nM. Still for that read-out and setting: in the case of B14 it was 100 nM.

Turning to B15, the IC50 is ~100 nM.

As to B16, the IC50 is 1500 nM. With B17, the IC50 stood at 8 nM. Still for that read-out and setting: in the case of B18 it was 8 nM; in that of B19, 8 nM; in that of B20, 3 nM. For the molecule B21, the concentration for half-maximal inhibition (IC50) is 0.417 nM.
